Test results taken from patent US20060193821, “Aptamers to the human IL-12 cytokine family and their use as autoimmune disease therapeutics” (published 2006).

B1: ARC1622 (mixed)
RNA: ACAGGCAAGUAAUUGGGGAGUGCGGGCGGGGUGU
modifications: 2'-OMe C,U and G16,G17,G24,G25,G30,G31; other A,G deoxy; PS 6-7,7-8,8-9,10-11,11-12,14-15; 3'-idT [PS 6-7,7-8,8-9,10-11,11-12,14-15; 2'-OMe at 2,6,10,13,14,16,17,21,23,24,25,27,30,31,32,34; other A,G deoxy; 3'-inverted dT at 35]
B2: ARC1625 (mixed)
RNA: B1 RNA
modifications: 2'-OMe C,U and G16,G17,G24,G25,G30,G31; other A,G deoxy; PS 32-33; 3'-idT [2'-OMe C2,C6,U10,U13,U14,G16,G17,U21,C23,G24,G25,C27,G30,G31,U32,U34; other A,G deoxy; PS 32-33 (N = PS linkage, left out); 3'-inverted dT 35]
B3: ARC1623 (mixed)
RNA: B1 RNA
modifications: 2'-OMe C,U and G16,G17,G24,G25,G30,G31; other A,G deoxy; PS 17-18,18-19,19-20,21-22; 3'-idT [2'-OMe C2,C6,U10,U13,U14,G16,G17,U21,C23,G24,G25,C27,G30,G31,U32,U34; other A,G deoxy; PS 17-18,18-19,19-20,21-22 (N = PS linkage, left out); 3'-inverted dT 35]
B4: ARC1626 (mixed)
RNA: B1 RNA
modifications: 2'-OMe C,U and G16,G17,G24,G25,G30,G31; other A,G deoxy; multiple PS; 3'-idT [2'-OMe C2,C6,U10,U13,U14,G16,G17,U21,C23,G24,G25,C27,G30,G31,U32,U34; other A,G deoxy; PS 2-3,3-4,4-5,6-7,7-8,8-9,10-11,11-12,14-15,17-18,18-19,19-20,21-22,25-26,27-28,28-29,32-33 (N = PS linkage, left out); 3'-inverted dT 35]
B5: ARC1755 (mixed)
RNA: B1 RNA
modifications: 2'-OMe C,U and most purines; PS 2-3,6-7,11-12,14-15; 3'-idT [2'-OMe C2,C6,U10,U13,U14,U21,C23,C27,U32,U34 and most purines (positions not stated); PS 2-3,6-7,11-12,14-15 (N = PS linkage, left out); 3'-inverted dT 35]
B6: AMX84-C11 (ssRNA)
RNA: GGGAAAAGCGAAUCAUACACAAGAAUGGUCGGAAUCUCUGGCGCCACGCUGAGUAUAGACGGAAGCUCCGCCAGAGACCAACCGAGAA
modifications: 2'-F all C and U (rRfY)
B7: AMX86-G10 (ssRNA)
RNA: GGGAAAAGCGAAUCAUACACAAGAGUCAUGGCUUACAAUUGAAACAAGAGCUCGCGUGACACAUGCUCCGCCAGAGACCAACCGAGAA
modifications: 2'-F all C and U (rRfY)
B8: AMX91-B8 (ssRNA)
RNA: GGGAAAAGCGAAUCAUACACAAGAAUCCUGGCUUCGCAUAGUGUAUGGGUAGUACGACAGCGCGUGCUCCGCCAGAGACCAACCGAGAA
modifications: 2'-F all C and U (rRfY)
B9: AMX86-D11 (ssRNA)
RNA: GGGAAAAGCGAAUCAUACACAAGAUAGCGUCUAUGAUGGCGGAGAAGCAAGUGUAGCAUAACAGGCUCCGCCAGAGACCAACCGAGAA
modifications: 2'-F all C and U (rRfY)

Biological target: T1, IL-23 (human, p19/p40 heterodimer) (Homo sapiens, UniProt Q9NPF7;P29460 SEQ:20-189,SEQ:23-328)
Assay: filter; no binding
Details: tags: R&D Systems, carrier free
Excerpt: The fraction aptamer bound vs. [IL-23] was used to calculate the KD by fitting the following equation to the data: Fraction aptamer bound=amplitude*([IL-23]/(KD+[IL-23]))+background binding.
Table 25 below summarizes the minimized sequences and the parent clone from which they were derived, and Table 26 summarizes the binding characterization from direct binding assays (+/−tRNA) and competition binding assays for the minimized constructs tested.

T1 sequence (Q9NPF7 20-189, chain 1 of 2): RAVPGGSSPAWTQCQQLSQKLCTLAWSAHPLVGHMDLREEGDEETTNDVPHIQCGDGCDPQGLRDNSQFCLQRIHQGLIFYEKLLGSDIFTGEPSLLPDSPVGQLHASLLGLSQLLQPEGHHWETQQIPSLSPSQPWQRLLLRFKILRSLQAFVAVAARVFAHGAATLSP
T1 sequence (P29460 23-328, chain 2 of 2): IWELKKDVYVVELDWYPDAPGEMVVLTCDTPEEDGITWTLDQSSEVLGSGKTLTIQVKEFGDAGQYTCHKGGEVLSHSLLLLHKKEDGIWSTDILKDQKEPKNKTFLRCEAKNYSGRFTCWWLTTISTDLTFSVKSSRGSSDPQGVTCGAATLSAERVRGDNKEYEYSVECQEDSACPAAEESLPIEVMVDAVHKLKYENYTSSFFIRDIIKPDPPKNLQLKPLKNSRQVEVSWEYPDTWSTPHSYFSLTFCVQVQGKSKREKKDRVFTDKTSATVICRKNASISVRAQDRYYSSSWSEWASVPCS

Does ACAGGCAAGGUAAUUGGGUAGUGAGGGCUGGGUGU (mixed, deoxy A,G; 2'-OMe C,U) [ARC896] bind?
Result: no binding

Does GGCGGUACGGGGGGAGUGGGCUGGG (mixed, deoxy A,G; 2'-OMe C,U) [ARC1170] bind?
Result: no binding

Does GGCGGUACGGGGAGUGUGGGUUGGG (mixed, deoxy A,G; 2'-OMe C,U) [ARC1171] bind?
Result: no binding

Same assay, conditions: tags: R&D Systems, carrier free; label: 5'-32P

Does GGCGGUUACGGGGGAUGCGGGUGGG (mixed, 2'-deoxy A and G, 2'-OMe C and U (dRmY)) [ARC981] bind?
Result: no binding

Biological target: T1, IL-23 (human, p19/p40 heterodimer)
Assay: cell_activity; Pathscan pSTAT3
Details: tags: R&D Systems, carrier free
Protocol: Inhibition of IL-23-induced STAT3 phosphorylation was measured using the Pathscan® Phospho-STAT3 (Tyr705) Sandwich ELISA Kit (Cell Signaling Technology, Beverly, Mass.).
Similar to the TransAM™ Assay method previously described, the Pathscan® Phospho-STAT3 (Tyr705) Sandwich ELISA Kit detects endogenous levels of Phospho-STAT3 (Tyr705) protein by using a STAT3 rabbit monoclonal antibody which has been coated onto the wells of a 96-well plate. After incubation with cell lysates, both nonphospho- and phospho-STAT3 proteins are captured by the coated antibody. A phospho-STAT3 mouse monoclonal antibody is added to detect the captured phospho-STAT3 protein, and an HRP-linked anti-mouse antibody is then used to recognize the bound detection antibody. HRP substrate, TMB, is added to develop color, and the magnitude of optical density for this developed color is proportional to the quantity of phospho-STAT3 protein.
PHA Blasts were isolated and prepared as described above and treated with hIL-23 at a final constant concentration of 6 ng/mL (R&D Systems, Minneapolis, Minn.) to induce STAT3 activation, instead of using 3 ng/mL as previously described with the TransAM™ assay. Clones were screened by using a 6-point […] titration from 0 to 700 nM in 3 fold dilutions in combination with a constant IL-23 concentration of 6 ng/mL of IL-23 (R&D Systems, Minneapolis, Minn.) to induce STAT3 activation, instead of using 3 ng/mL as previously described with the TransAM™ assay. Lysates of treated cells were prepared using the buffers provided by the Pathscan kit, and the assay was run according to the manufacturer's instructions. IC₅₀s for the full length clones were calculated from the dose response curves.

Which IC50 does the source give for B1 here?
The IC50 was 9 nM.

With B2 as the binder, how does the IC50 read?
Its IC50 is 4 nM.

Which IC50 does the source give for B3 here?
The IC50 was 5 nM.

B4 was tested. Which IC50 did it give?
Its IC50 is 12 nM.

With B5 as the binder, how does the IC50 read?
Its IC50 is 68 nM.

Biological target: IL-12 (human, p35/p40 heterodimer) (Homo sapiens, UniProt P29459;P29460 SEQ:57-253,SEQ:23-328)
Assay: filter; 1X SHMCK, 0.1 mg/mL tRNA, RT
Details: label: 5'-32P
Protocol: (§1) Monitoring Progress of rRfY Selection. Dot blot binding assays were performed throughout the selections to monitor the protein binding affinity of the pools. Trace ³²P-labeled RNA was combined with a dilution series of h-IL-23 and incubated at room temperature for 30 minutes in 1×SHMCK (20 mM Hepes, 120 mM NaCl, 5 mM KCl, 1 mM MgCl₂, 1 mM CaCl₂, pH 7.4) plus 0.1 mg/mL tRNA for a final volume of 20 μL. The binding reactions were analyzed by nitrocellulose filtration using a Minifold I dot-blot, 96-well vacuum filtration manifold (Schleicher & Schuell, Keene, N.H.). A three-layer filtration medium was used, consisting (from top to bottom) of Protran nitrocellulose (Schleicher & Schuell), Hybond-P nylon (Amersham Biosciences) and GB002 gel blot paper (Schleicher & Schuell). RNA that is bound to protein is captured on the nitrocellulose filter, whereas the non-protein bound RNA is captured on the nylon filter. The gel blot paper was included simply as a supporting medium for the other filters. Following filtration, the filter layers were separated, dried and exposed on a phosphor screen (Amersham Biosciences, Piscataway, N.J.) and quantified using a Storm 860 Phosphorimager® blot imaging system (Amersham Biosciences).
(§2) When a significant positive ratio of binding of RNA in the presence of h-IL-23 versus in the absence of h-IL-23 was seen, the pools were cloned using a TOPO TA cloning kit (Invitrogen, Carlsbad, Calif.) according to the manufacturer's instructions. For the h-IL-23 and X-IL-23 selections, the Round 8 pool templates were cloned, and 32 individual clones from each selections were assayed in a 1-point dot blot screen (+/−75 nM h-IL-23, as well as a separate screen at +/−75 nM h-IL-12). For the PN-IL-23 selection, the Round 10 pool was cloned and sequenced, and 8 unique clones were assayed for protein binding in a 1-point dot blot screen (+/−200 nM h-IL-23 and a separate screen at +/−200 nM h-IL-12). Subsequently, the Round 10 PN-IL-23 pool was re-cloned for further sequences, as well as the R12 PN-IL-23 pool, and the clones were assayed for protein binding in a 1 point do blot screen (+/−100 nM h-IL-23 or +/−200 nM h-IL-12).

IL-12 (human, p35/p40 heterodimer), sequence (P29459 23-219, chain 1 of 2): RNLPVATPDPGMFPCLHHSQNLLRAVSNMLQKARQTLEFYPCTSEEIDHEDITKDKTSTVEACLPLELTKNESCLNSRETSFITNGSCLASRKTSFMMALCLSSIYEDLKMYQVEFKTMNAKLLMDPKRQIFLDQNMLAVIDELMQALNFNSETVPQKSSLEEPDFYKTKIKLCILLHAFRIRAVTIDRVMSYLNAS
IL-12 (human, p35/p40 heterodimer), sequence (P29460 23-328, chain 2 of 2): as the sequence (P29460 23-328, chain 2 of 2) above

B6 was tested. Which Kd did it give?
The Kd was 286 nM.

With B7 as the binder, how does the Kd read?
Its Kd is 356 nM.

B8 was tested. Which Kd did it give?
Its Kd is 409 nM.

For B9, which Kd is on record?
The Kd was 114 nM.

Biological target: T1, IL-23 (human, p19/p40 heterodimer)
Assay: filter; 1X SHMCK, 1 mM Mg, 1 mM Ca, 0.1 mg/mL tRNA, RT
Details: tags: R&D Systems, carrier free; label: 5'-32P
Protocol: as §1, §2

For B6, which Kd is on record?
The Kd was 15.5 nM.

With B7 as the binder, how does the Kd read?
The Kd was 73.7 nM.

B8 was tested. Which Kd did it give?
The Kd was 17.6 nM.

Which Kd does the source give for B9 here?
The Kd was 199 nM.

Biological target: T1, IL-23 (human, p19/p40 heterodimer)
Assay: filter; DPBS Ca Mg
Details: tags: R&D Systems, carrier free
Protocol: The dot blot binding assay previously described was used to characterize the relative potency of the majority of the aptamers synthesized. For KD determination, chemically synthesized aptamers were purified using denaturing polyacrylamide gel electrophoresis, 5′end labeled with γ-³²P ATP and were tested for direct binding to full human IL-23. An 8 point protein titration was used in the dot blot binding assay (either {100 nM, 30 nM, 10 nM, 3 nM, 1 nM, 300 pM, 100 pM, 0 pM} or {10 nM, 3 nM, 1 nM, 300 pM, 100 pM, 30 pM, 10 pM, 0 pM}) in Dulbecco's PBS (with Mg⁺⁺ and Ca⁺⁺) with 0.1 mg/mL BSA. KD values were calculated by fitting the equation y=(max/(1+K/protein))+yint using KaleidaGraph (KaleidaGraph v. 3.51, Synergy Software). Sequences of the ARC979 derivatives synthesized, purified and assayed for binding to IL-23 as well as the results of the protein binding characterization are tabulated below in Tables 29 and 30.

B1 was tested. Which Kd did it give?
Its Kd is 0.3 nM.

B5 was tested. Which Kd did it give?
Its Kd is 0.8 nM.
